Substitutions are numbered along the chain they refer to.
What was measured:
[1] = target: T1, MUC1 on HCT116/MUC1 cells (human, UniProt P15941 24-1255); assay: flow cytometry titration on HCT116/MUC1 cells
T1 construct: whole, on cells; Human colon cancer cell line engineered to express MUC1
Experimental: (§1) FACS titration of humanized antibodies. For affinity ranking of humanized antibodies to HCT116/MUC1 cells (a human colon cancer cell line engineered to express MUC1), the purified antibodies were subject to FACs titration. In brief, HCT116/MUC1 cells were cultured and harvested by centrifugation. About 2.5×10⁵ cells per well were washed with PBS twice and incubated in 200 μl of serial dilutions of antibodies for 30 min at 4° C. After washing with PBS., secondary antibody (3 μg Goat anti-Human IgG(H+L) I Fluor 647) was added to the cells and incubated for 30 min at 4° C. After washing with PBS, cells were analyzed for binding (EC₅₀) by using FACS Calibur (BD Bioscience, San Jose, Calif.) and Flowjo software.
(§2) FACS titration of humanized antibodies. Each of the 7 antibodies was titrated for its binding capacity to HCT116/MUC1 cells at various concentrations and the results are mentioned in Table 8 and with a graphical representation in FIG. 5.
T1 sequence (P15941 24-1255): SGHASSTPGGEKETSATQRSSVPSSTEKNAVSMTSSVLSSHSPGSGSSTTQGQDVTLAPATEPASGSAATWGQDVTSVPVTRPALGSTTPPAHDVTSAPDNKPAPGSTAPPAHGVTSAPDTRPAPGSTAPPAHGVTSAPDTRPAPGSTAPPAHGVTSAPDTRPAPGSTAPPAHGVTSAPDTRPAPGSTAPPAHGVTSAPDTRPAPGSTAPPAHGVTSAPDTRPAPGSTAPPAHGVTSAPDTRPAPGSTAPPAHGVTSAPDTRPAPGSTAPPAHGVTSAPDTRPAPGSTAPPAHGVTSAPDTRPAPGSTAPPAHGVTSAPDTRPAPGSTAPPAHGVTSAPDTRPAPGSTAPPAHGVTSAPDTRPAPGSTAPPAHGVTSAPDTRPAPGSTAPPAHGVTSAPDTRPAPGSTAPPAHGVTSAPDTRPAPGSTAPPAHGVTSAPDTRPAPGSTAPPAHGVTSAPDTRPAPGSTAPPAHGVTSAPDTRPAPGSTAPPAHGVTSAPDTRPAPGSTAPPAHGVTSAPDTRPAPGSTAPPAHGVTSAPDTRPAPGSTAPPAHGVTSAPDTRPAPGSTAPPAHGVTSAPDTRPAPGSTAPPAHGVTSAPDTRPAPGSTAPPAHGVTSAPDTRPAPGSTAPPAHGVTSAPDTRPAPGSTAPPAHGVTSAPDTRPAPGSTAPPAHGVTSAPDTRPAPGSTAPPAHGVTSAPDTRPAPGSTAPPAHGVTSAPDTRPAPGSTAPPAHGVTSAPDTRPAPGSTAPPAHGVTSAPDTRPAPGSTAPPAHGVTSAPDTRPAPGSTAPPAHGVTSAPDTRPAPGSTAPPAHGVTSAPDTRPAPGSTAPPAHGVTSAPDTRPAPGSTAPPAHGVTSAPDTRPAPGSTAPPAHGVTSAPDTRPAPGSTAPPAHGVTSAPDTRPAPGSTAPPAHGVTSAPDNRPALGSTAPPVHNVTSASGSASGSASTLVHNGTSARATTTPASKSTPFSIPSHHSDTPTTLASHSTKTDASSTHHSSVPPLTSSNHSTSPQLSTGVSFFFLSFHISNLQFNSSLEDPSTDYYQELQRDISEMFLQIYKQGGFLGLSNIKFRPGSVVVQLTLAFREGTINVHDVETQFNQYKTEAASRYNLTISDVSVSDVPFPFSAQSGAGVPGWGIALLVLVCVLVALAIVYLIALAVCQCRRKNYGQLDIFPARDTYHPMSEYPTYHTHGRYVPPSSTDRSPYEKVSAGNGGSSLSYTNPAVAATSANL

[2] = target: T2, MUC1 on HCT116/MUC1 cells (human, UniProt P15941 24-1255); assay: flow cytometry titration on HCT116/MUC1 cells
Experimental: as §1, §2
T2 sequence (P15941 24-1097, chain 1 of 2): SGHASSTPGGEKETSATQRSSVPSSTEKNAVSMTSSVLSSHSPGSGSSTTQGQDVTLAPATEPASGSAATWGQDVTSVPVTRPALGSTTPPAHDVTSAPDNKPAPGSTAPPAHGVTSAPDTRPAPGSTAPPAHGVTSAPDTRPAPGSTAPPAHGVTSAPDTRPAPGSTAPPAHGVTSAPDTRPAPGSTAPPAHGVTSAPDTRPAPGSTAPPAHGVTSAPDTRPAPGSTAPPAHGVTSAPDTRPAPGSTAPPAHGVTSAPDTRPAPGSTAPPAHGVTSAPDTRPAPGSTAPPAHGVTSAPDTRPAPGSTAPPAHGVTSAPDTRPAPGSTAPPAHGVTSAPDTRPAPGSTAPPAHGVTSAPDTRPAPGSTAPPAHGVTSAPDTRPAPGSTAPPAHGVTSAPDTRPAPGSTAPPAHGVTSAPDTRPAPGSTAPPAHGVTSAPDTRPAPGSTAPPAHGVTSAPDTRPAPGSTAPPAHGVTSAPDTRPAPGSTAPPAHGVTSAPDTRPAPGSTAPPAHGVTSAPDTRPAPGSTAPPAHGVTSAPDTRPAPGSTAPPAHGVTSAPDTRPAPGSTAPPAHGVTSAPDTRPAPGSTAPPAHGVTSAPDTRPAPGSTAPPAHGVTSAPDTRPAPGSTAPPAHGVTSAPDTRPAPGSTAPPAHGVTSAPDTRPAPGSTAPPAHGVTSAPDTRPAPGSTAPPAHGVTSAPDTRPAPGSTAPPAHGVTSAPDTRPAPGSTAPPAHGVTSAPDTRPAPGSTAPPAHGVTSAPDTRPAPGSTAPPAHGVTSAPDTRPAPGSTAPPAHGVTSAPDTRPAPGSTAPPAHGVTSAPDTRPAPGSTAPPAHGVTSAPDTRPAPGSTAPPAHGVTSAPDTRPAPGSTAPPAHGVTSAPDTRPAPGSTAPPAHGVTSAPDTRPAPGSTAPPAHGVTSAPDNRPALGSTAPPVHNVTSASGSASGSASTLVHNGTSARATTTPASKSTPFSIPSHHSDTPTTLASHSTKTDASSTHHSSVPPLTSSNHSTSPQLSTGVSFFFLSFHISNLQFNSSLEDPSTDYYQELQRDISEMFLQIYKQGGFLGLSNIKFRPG
T2 sequence (P15941 1098-1255, chain 2 of 2): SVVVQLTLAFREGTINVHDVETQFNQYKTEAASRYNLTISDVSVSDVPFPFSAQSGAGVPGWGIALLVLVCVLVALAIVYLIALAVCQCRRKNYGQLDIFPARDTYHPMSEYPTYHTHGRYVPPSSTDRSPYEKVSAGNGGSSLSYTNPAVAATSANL

[3] = target: T2, MUC1 on HCT116/MUC1 cells; assay: flow cytometry on HCT116/MUC1 cells; antibody at 3.703704 nM
[4] = target: T2, MUC1 on HCT116/MUC1 cells; assay: flow cytometry on HCT116/MUC1 cells; antibody at 100 nM
[5] = target: T2, MUC1 on HCT116/MUC1 cells; assay: flow cytometry on HCT116/MUC1 cells; antibody at 0.137174 nM
[6] = target: T2, MUC1 on HCT116/MUC1 cells; assay: flow cytometry on HCT116/MUC1 cells; antibody at 300 nM
[7] = target: T2, MUC1 on HCT116/MUC1 cells; assay: flow cytometry on HCT116/MUC1 cells; antibody at 11.11111 nM
[8] = target: T2, MUC1 on HCT116/MUC1 cells; assay: flow cytometry on HCT116/MUC1 cells; antibody at 0.045725 nM
[9] = target: T2, MUC1 on HCT116/MUC1 cells; assay: flow cytometry on HCT116/MUC1 cells; antibody at 0.015242 nM
[10] = target: T2, MUC1 on HCT116/MUC1 cells; assay: flow cytometry on HCT116/MUC1 cells; antibody at 0.411523 nM
[11] = target: T2, MUC1 on HCT116/MUC1 cells; assay: flow cytometry on HCT116/MUC1 cells; antibody at 33.33333 nM
[12] = target: T2, MUC1 on HCT116/MUC1 cells; assay: flow cytometry on HCT116/MUC1 cells; antibody at 1.234568 nM

B1: Chimeric IgG (antibody, V domains shown)
VH: QVQLQQSGAELMKPGASVKISCKAIGFTFNYFWIEWVKQRPGHGLEWIGEILPGTGSTNYNEKFKGKAIFTADTSSNTAYMQLRSLTSEDSAVYYCVRYDYTSSMDYWGQGTSVTVSS
VL: DIVLTQSPGSLAVSLGQSVTISCRASESVQYSGTSLMHWYQQKPGQPPKLLIYGASNVETGVPARFSGSGSGTDFSLNIHPVEEDDIAMYFCQQNWKVPWTFGGGTKLEIKR
notes: Chimera of the parental mouse antibody with a human Fc (captured by anti-human Fc); also called chimeric antibody; parent chimeric antibody
In the case of B1, the EC50 [1] is reported as 6.08 nM.

B2: VH5 + VL3 (antibody, human IgG1, kappa, V domains shown)
VH: EVQLVQSGAEVKKPGESLKISCKGSGFTFNYFWIEWVRQMPGKGLEWMGEILPGTGSTNYNEKFKGQVTISADKSISTAYLQWSSLKASDTAMYYCARYDYTSSMDYWGQGTLVTVSS
VL: EIVLTQSPATLSLSPGERATLSCRASESVQYSGTSLMHWYQQKPGQAPRLLIYGASNVETGIPARFSGSGSGTDFTLTISSLEPEDFAVYYCQQNWKVPWTFGQGTKVEIKR
notes: Full-length humanized IgG expressed in HEK293 and purified on protein A. Constant regions not specified; also called #23 (inferred from 5x5 numbering)
In the case of B2, the EC50 [1] is reported as 12.2 nM.

B3: VH1 + VL3 (antibody, V domains shown)
VH: QVQLVQSGAEVKKPGSSVKVSCKASGYAFSNFWMNWVRQAPGQGLEWMGQIYPGDGDTNYNGKFKGRVTITADKSTSTAYMELSSLRSEDTAVYYCARSYYRSAWFAYWGQGTLVTVSS
VL: EIVLTQSPATLSLSPGERATLSCRASQSIGTSIHWYQQKPGQAPRLLIYYASESISGIPARFSGSGSGTDFTLTISSLEPEDFAVYYCQQSNNWPLTFGGGTKVEIK
With B3 the EC50 [2] was 13.2 nM, the FACS titration signal [3] was 10.4 and the FACS titration signal [4] was 41.7. It also gave an FACS titration signal [5] of 9.47, an FACS titration signal [6] of 42 and an FACS titration signal [7] of 20.2. It also gave an FACS titration signal [8] of 8.96, an FACS titration signal [9] of 5.76 and an FACS titration signal [10] of 6.22. It also gave an FACS titration signal [11] of 41 and an FACS titration signal [12] of 7.09.

B4: VH2 + VL3 (antibody, V domains shown)
VH: B3 VH with S16A, I70M, A72R, K74T, A79V
VL: B3 VL
B4 was tested, and the EC50 [2] was 13.3 nM, the FACS titration signal [3] was 13.9 and the FACS titration signal [4] was 43.8. For the same binder, the FACS titration signal [5] was 9.04, the FACS titration signal [6] was 44.1 and the FACS titration signal [7] was 21.5. For the same binder, the FACS titration signal [8] was 5.46, the FACS titration signal [9] was 8.96 and the FACS titration signal [10] was 6.48. It also gave an FACS titration signal [11] of 43 and an FACS titration signal [12] of 10.6.

B5: VH5 + VL2 (antibody, V domains shown)
VH: EVQLVQSGAEVKKPGESLKISCKGSGYAFSNFWMNWVRQMPGKGLEWMGQIYPGDGDTNYNGKFKGQVTISADKSISTAYLQWSSLKASDTAMYYCARSYYRSAWFAYWGQGTLVTVSL
VL: B3 VL with L4M, L13V, D70E, E79Q, P80S
B5 showed an EC50 [2] of 7.69 nM, an FACS titration signal [3] of 17.3 and an FACS titration signal [4] of 48.9. It also gave an FACS titration signal [5] of 9.2, an FACS titration signal [6] of 46.3 and an FACS titration signal [7] of 33.4. The FACS titration signal [8] was 6.76, the FACS titration signal [9] was 5.88 and the FACS titration signal [10] was 9.71. For the same binder, the FACS titration signal [11] was 48.1 and the FACS titration signal [12] was 11.8.

B6: VH1 + VL4 (antibody, V domains shown)
VH: B3 VH
VL: AIQLTQSPSSLSASVGDRVTITCRASQSIGTSIHWYQQKPGKAPKLLIYYASESISGVPSRFSGSGSGTDFTLTISSLQPEDFATYYCQQSNNWPLTFGGGTKVEIK
In the case of B6, the EC50 [2] is reported as 9.8 nM, the FACS titration signal [3] is reported as 16.6 and the FACS titration signal [4] is reported as 56.2. The FACS titration signal [5] was 5.5, the FACS titration signal [6] was 53.9 and the FACS titration signal [7] was 32.3. It also gave an FACS titration signal [8] of 5.99, an FACS titration signal [9] of 5.73 and an FACS titration signal [10] of 10.1. It also gave an FACS titration signal [11] of 57.8 and an FACS titration signal [12] of 7.61.

— patent publication US20230265208A1 (Dana-Farber, published 2023)
